In article doi:10.1101/2020.06.24.168591:

Target: E108D mutant of Thermoplasmatales archaeon SG8-52-1 heliorhodopsin (TaHeR) (Thermoplasmatales archaeon SG8-52-1)
Test: crystal structure

stoichiometry N: 2
Substance: E108D mutant of Thermoplasmatales archaeon SG8-52-1 heliorhodopsin (TaHeR) (natural protein)
